Reference: US20220042033A1, “COMPOSITION AND METHOD FOR CONFERRING AND/OR ENHANCING TOLERANCE AGAINST HERBICIDES BY USING VARIANTS OF PPO” (FarmHannong Co., Ltd., priority 2017, published 2022)

Tested on: ApPPO1
Test: PPO enzyme activity of purified MBP-fused ApPPO1 wild type and variants
Assay type: biochemical, Auxenochlorella protothecoides
Settings: PPO enzyme activity relative to ApPPO1 wild type; MBP-fused protein
Protocol: Thus, PPO proteins of wild type and variants were expressed as fused to MBP and were used for experiments.
The following process for purification of PPO protein was performed in a 4° C. cold room. […] The column was washed with 3 column volumes of buffer and the presence of protein in the washing solution was examined. When the protein was no longer detected, the washing procedure was terminated. Then, the MBP-PPO protein was eluted with approximately 2 column volumes of buffer containing 20 mM maltose. The protein concentration of each eluent was determined and the elution was stopped when the protein was no longer detected. Ten microliter of each fraction was investigated for protein quantification and SDS-PAGE analysis. The highly pure fractions of PPO protein variants were used for the enzyme assay.
Since protoporphyrinogen IX, a substrate of PPO protein, was not commercially available, it was chemically synthesized in the laboratory. Overall process was performed in dark under nitrogen stream. […] of protoporphyrin IX was dissolved in 20 ml of 20% (v/v) EtOH, and stirred under dark condition for 30 minutes. The obtained protoporphyrin IX solution was put into a 15 ml screw tube in an amount of 800 μl, and flushed with nitrogen gas for 5 minutes. To this, 1.5 g of sodium amalgam was added and vigorously shaken for 2 minutes. The lid was opened to exhaust hydrogen gas in the tube. Thereafter, the lid was closed and incubated for 3 minutes. The protoporphyrinogen IX solution was filtered using syringe and cellulose membrane filter. To 600 μl of the obtained protoporphyrinogen IX solution, approximately 300 μl of 2M MOPS [3-(N-morpholino) propanesulfonic acid] was added to adjust pH to 8.0. To determine the enzyme activity of PPO protein, a reaction mixture was prepared with the following composition (based on 10 ml): 50 mM Tris-Cl (pH 8.0); 50 mM NaCl; 0.04% (v/v) Tween 20; 40 mM glucose (0.072 g); 5 units glucose oxidase (16.6 mg); and 10 units catalase (1 μl).
Hundred and eighty microliters of a reaction mixture […] were placed in 96 well plates and 20 μl of purified PPO proteins were added. After 50 μl of the mineral oil was layered, the reaction was initiated by adding the substrate, protoporphyrinogen IX solution, to a final concentration of 50 μM. The reaction proceeded at room temperature for 30 min and the fluorescence of protoporphyrin IX was measured using Microplate reader (Sense, Hidex) (excitation: 405 nm; emission: 633 nm). To calculate the PPO enzyme activity, the protoporphyrinogen IX solution was kept open in the air overnight to oxidize the solution. To this, 2.7 N HCl was added, and the absorbance at 408 nm was measured. A standard curve was generated using standard protoporphyrin IX, and PPO activity was measured by calibration of protoporphyrin IX using the standard curve of protoporphyrin IX.
Activities of variants were presented relatively compared to that of wild type.

Molecule	Activity (%)
F209A: ApPPO1 (SEQ ID NO: 1) variant (protein, Synthetic (Protoporphyrinogen IX oxidase (ApPPO1) of Auxenochlorella protothecoides)) MPFTHLKPLNRLLGSPRARHPHVAPQAVSVTNTSTTRPGGRSSAPGIPGDAEYDVVIVGAGISGLTTAQALAKQYSDAVPRLLVTEARDCVGGNIITRRDGGYQWEEGPNSFQPSDAVLRAAVDAGVADRLVLGDPKAPRYVYWGGRLRATPSGPDVLTFDLLSLWGKLRAGLGAAGFKAPLPEREESVKEFVTRNLGEEVFQRLIEPACSGVYAGDPAKLSMKAAFGKVYDLEKGGGSIVGGVLALMKARKQKPPEPRPADLPPKPKGQTVGSFDKGLVTLPSAIAEELGDRVVTGWKLESIDRSGDRFQLTYDTPQGRKKVSARSVALTVPAYTAASLLESRFPKLGKALSSIYYPPVASVALSYPETAILPERLGSDGHLAGFGQLHPRTQGVTTLGTIYASSLFPGRVPEGKVLLLSYFGGATNTRVATMPHGEIVSQVDKDLRKMLIRSDAESPHTVNVTVWPRAIPQFNVGHTDLIQEAKDDLASQGWQGLHLGGNYVAGVALGKCMEAGYKQAAELASHVKSLAT	78
V213C: ApPPO1 (SEQ ID NO: 1) variant (protein, Synthetic (Protoporphyrinogen IX oxidase (ApPPO1) of Auxenochlorella protothecoides)) MPFTHLKPLNRLLGSPRARHPHVAPQAVSVTNTSTTRPGGRSSAPGIPGDAEYDVVIVGAGISGLTTAQALAKQYSDAVPRLLVTEARDCVGGNIITRRDGGYQWEEGPNSFQPSDAVLRAAVDAGVADRLVLGDPKAPRYVYWGGRLRATPSGPDVLTFDLLSLWGKLRAGLGAAGFKAPLPEREESVKEFVTRNLGEEVFQRLIEPFCSGCYAGDPAKLSMKAAFGKVYDLEKGGGSIVGGVLALMKARKQKPPEPRPADLPPKPKGQTVGSFDKGLVTLPSAIAEELGDRVVTGWKLESIDRSGDRFQLTYDTPQGRKKVSARSVALTVPAYTAASLLESRFPKLGKALSSIYYPPVASVALSYPETAILPERLGSDGHLAGFGQLHPRTQGVTTLGTIYASSLFPGRVPEGKVLLLSYFGGATNTRVATMPHGEIVSQVDKDLRKMLIRSDAESPHTVNVTVWPRAIPQFNVGHTDLIQEAKDDLASQGWQGLHLGGNYVAGVALGKCMEAGYKQAAELASHVKSLAT	85
A215C: ApPPO1 (SEQ ID NO: 1) variant (protein, Synthetic (Protoporphyrinogen IX oxidase (ApPPO1) of Auxenochlorella protothecoides)) MPFTHLKPLNRLLGSPRARHPHVAPQAVSVTNTSTTRPGGRSSAPGIPGDAEYDVVIVGAGISGLTTAQALAKQYSDAVPRLLVTEARDCVGGNIITRRDGGYQWEEGPNSFQPSDAVLRAAVDAGVADRLVLGDPKAPRYVYWGGRLRATPSGPDVLTFDLLSLWGKLRAGLGAAGFKAPLPEREESVKEFVTRNLGEEVFQRLIEPFCSGVYCGDPAKLSMKAAFGKVYDLEKGGGSIVGGVLALMKARKQKPPEPRPADLPPKPKGQTVGSFDKGLVTLPSAIAEELGDRVVTGWKLESIDRSGDRFQLTYDTPQGRKKVSARSVALTVPAYTAASLLESRFPKLGKALSSIYYPPVASVALSYPETAILPERLGSDGHLAGFGQLHPRTQGVTTLGTIYASSLFPGRVPEGKVLLLSYFGGATNTRVATMPHGEIVSQVDKDLRKMLIRSDAESPHTVNVTVWPRAIPQFNVGHTDLIQEAKDDLASQGWQGLHLGGNYVAGVALGKCMEAGYKQAAELASHVKSLAT	89
V360M: ApPPO1 (SEQ ID NO: 1) variant (protein, Synthetic (Protoporphyrinogen IX oxidase (ApPPO1) of Auxenochlorella protothecoides)) MPFTHLKPLNRLLGSPRARHPHVAPQAVSVTNTSTTRPGGRSSAPGIPGDAEYDVVIVGAGISGLTTAQALAKQYSDAVPRLLVTEARDCVGGNIITRRDGGYQWEEGPNSFQPSDAVLRAAVDAGVADRLVLGDPKAPRYVYWGGRLRATPSGPDVLTFDLLSLWGKLRAGLGAAGFKAPLPEREESVKEFVTRNLGEEVFQRLIEPFCSGVYAGDPAKLSMKAAFGKVYDLEKGGGSIVGGVLALMKARKQKPPEPRPADLPPKPKGQTVGSFDKGLVTLPSAIAEELGDRVVTGWKLESIDRSGDRFQLTYDTPQGRKKVSARSVALTVPAYTAASLLESRFPKLGKALSSIYYPPMASVALSYPETAILPERLGSDGHLAGFGQLHPRTQGVTTLGTIYASSLFPGRVPEGKVLLLSYFGGATNTRVATMPHGEIVSQVDKDLRKMLIRSDAESPHTVNVTVWPRAIPQFNVGHTDLIQEAKDDLASQGWQGLHLGGNYVAGVALGKCMEAGYKQAAELASHVKSLAT	59
F386V: ApPPO1 (SEQ ID NO: 1) variant (protein, Synthetic (Protoporphyrinogen IX oxidase (ApPPO1) of Auxenochlorella protothecoides)) MPFTHLKPLNRLLGSPRARHPHVAPQAVSVTNTSTTRPGGRSSAPGIPGDAEYDVVIVGAGISGLTTAQALAKQYSDAVPRLLVTEARDCVGGNIITRRDGGYQWEEGPNSFQPSDAVLRAAVDAGVADRLVLGDPKAPRYVYWGGRLRATPSGPDVLTFDLLSLWGKLRAGLGAAGFKAPLPEREESVKEFVTRNLGEEVFQRLIEPFCSGVYAGDPAKLSMKAAFGKVYDLEKGGGSIVGGVLALMKARKQKPPEPRPADLPPKPKGQTVGSFDKGLVTLPSAIAEELGDRVVTGWKLESIDRSGDRFQLTYDTPQGRKKVSARSVALTVPAYTAASLLESRFPKLGKALSSIYYPPVASVALSYPETAILPERLGSDGHLAGVGQLHPRTQGVTTLGTIYASSLFPGRVPEGKVLLLSYFGGATNTRVATMPHGEIVSQVDKDLRKMLIRSDAESPHTVNVTVWPRAIPQFNVGHTDLIQEAKDDLASQGWQGLHLGGNYVAGVALGKCMEAGYKQAAELASHVKSLAT	86
L389T: ApPPO1 (SEQ ID NO: 1) variant (protein, Synthetic (Protoporphyrinogen IX oxidase (ApPPO1) of Auxenochlorella protothecoides)) MPFTHLKPLNRLLGSPRARHPHVAPQAVSVTNTSTTRPGGRSSAPGIPGDAEYDVVIVGAGISGLTTAQALAKQYSDAVPRLLVTEARDCVGGNIITRRDGGYQWEEGPNSFQPSDAVLRAAVDAGVADRLVLGDPKAPRYVYWGGRLRATPSGPDVLTFDLLSLWGKLRAGLGAAGFKAPLPEREESVKEFVTRNLGEEVFQRLIEPFCSGVYAGDPAKLSMKAAFGKVYDLEKGGGSIVGGVLALMKARKQKPPEPRPADLPPKPKGQTVGSFDKGLVTLPSAIAEELGDRVVTGWKLESIDRSGDRFQLTYDTPQGRKKVSARSVALTVPAYTAASLLESRFPKLGKALSSIYYPPVASVALSYPETAILPERLGSDGHLAGFGQTHPRTQGVTTLGTIYASSLFPGRVPEGKVLLLSYFGGATNTRVATMPHGEIVSQVDKDLRKMLIRSDAESPHTVNVTVWPRAIPQFNVGHTDLIQEAKDDLASQGWQGLHLGGNYVAGVALGKCMEAGYKQAAELASHVKSLAT	11
I402T: ApPPO1 (SEQ ID NO: 1) variant (protein, Synthetic (Protoporphyrinogen IX oxidase (ApPPO1) of Auxenochlorella protothecoides)) MPFTHLKPLNRLLGSPRARHPHVAPQAVSVTNTSTTRPGGRSSAPGIPGDAEYDVVIVGAGISGLTTAQALAKQYSDAVPRLLVTEARDCVGGNIITRRDGGYQWEEGPNSFQPSDAVLRAAVDAGVADRLVLGDPKAPRYVYWGGRLRATPSGPDVLTFDLLSLWGKLRAGLGAAGFKAPLPEREESVKEFVTRNLGEEVFQRLIEPFCSGVYAGDPAKLSMKAAFGKVYDLEKGGGSIVGGVLALMKARKQKPPEPRPADLPPKPKGQTVGSFDKGLVTLPSAIAEELGDRVVTGWKLESIDRSGDRFQLTYDTPQGRKKVSARSVALTVPAYTAASLLESRFPKLGKALSSIYYPPVASVALSYPETAILPERLGSDGHLAGFGQLHPRTQGVTTLGTTYASSLFPGRVPEGKVLLLSYFGGATNTRVATMPHGEIVSQVDKDLRKMLIRSDAESPHTVNVTVWPRAIPQFNVGHTDLIQEAKDDLASQGWQGLHLGGNYVAGVALGKCMEAGYKQAAELASHVKSLAT	16
